In PMC5362243, “A rare IL33 loss-of-function mutation reduces blood eosinophil counts and protects from asthma” (PLoS Genetics, 2017):

Target: T1, Human ST2-Flag-His (recombinant IL-33R, extracellular domain) (human, UniProt Q01638-1 19-328)
T1 construct: human ST2 (IL1RL1, IL-33 receptor), recombinant protein encompassing the extracellular domain; Captured on the chip through its His tag by an immobilised penta-His antibody; also called IL-33R/ST2; IL1RL1; source: prepared by Amgen
T1 sequence (looked up): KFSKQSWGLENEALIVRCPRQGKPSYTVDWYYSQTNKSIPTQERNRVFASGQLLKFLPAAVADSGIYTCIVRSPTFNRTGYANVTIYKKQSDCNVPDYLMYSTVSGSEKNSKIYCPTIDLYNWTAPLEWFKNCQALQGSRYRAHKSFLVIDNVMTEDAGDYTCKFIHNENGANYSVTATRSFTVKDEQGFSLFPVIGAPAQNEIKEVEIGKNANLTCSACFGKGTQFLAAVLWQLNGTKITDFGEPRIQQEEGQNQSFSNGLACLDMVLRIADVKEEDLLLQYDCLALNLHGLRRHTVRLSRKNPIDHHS
Experiment: SPR; Biacore T200, CM5 chip; human ST2-Flag-His captured by amine-coupled penta-His antibody; IL-33 variants injected at 200 nM (180 s association, 300 s dissociation); 25°C, HBS-P (10 mM HEPES pH 7.4, 150 mM NaCl, 0.05% P20); single replicate
Details: both partners purified

binding result: binds
B1: IL-33 (95-270), wild type cytokine domain (domain or fragment, human, UniProt O95760-1 95-270, looked up)
chain: AFGISGVQKYTRALHDSSITGISPITEYLASLSTYNDQSITFALEDESYEIYVEDLKKDEKKDKVLLSYYESQHPSNESGDGVDGKMLMVTLSPTKDFWLHANNKEHSVELHKCEKPLPDQAFFVLHNMHSNCVSFECKTDPGVFIGVKDNHLALIKVDSSENLCTENILFKLSET
notes: human interleukin-33, residues 95-270 of the 270-residue protein, released by thrombin cleavage from a poly-His fusion (pET24a); Start at residue 95 chosen after the natural processing of IL-33; also called wild type IL-33 (95–270); IL-33 (95–270) (Amgen); source: E. coli, purified (nickel HisTrap, SEC, thrombin cleavage, SEC); not shown: poly-His, N-terminal, cleaved
